# From patent US20090047301A1
# Columns and labels:
# [1] = target: full length HPV16 L2 protein (ELISA and Western blot antigen) (human papillomavirus 16 (HPV16)) (UniProt P03107); assay: L2 protein ELISA, undiluted hybridoma supernatant
# [2] = target: HPV16 L2 in HPV16 L1/L2 capsids (pseudovirions, L1/L2 VLPs) (human papillomavirus 16 (HPV16)) (UniProt P03107)
# [3] = target: HPV16 L2 in HPV16 L1/L2 capsids (pseudovirions, L1/L2 VLPs) (human papillomavirus 16 (HPV16)) (UniProt P03107); assay: HPV16 L1/L2 VLP ELISA, undiluted hybridoma supernatant
# [4] = target: HPV18 L2 in HPV18 pseudovirions (human papillomavirus 18 (HPV18)) (UniProt P06793)
# [5] = target: HPV16 L2 in HPV16 L1/L2 capsids (pseudovirions, L1/L2 VLPs) (human papillomavirus 16 (HPV16)) (UniProt P03107); remark: listed apart in the source
# [6] = target: HPV16 L2 in HPV16 L1/L2 capsids (pseudovirions, L1/L2 VLPs) (human papillomavirus 16 (HPV16)) (UniProt P03107); assay: HPV16 L1/L2 VLP ELISA
substance,measurement,setting,value
RG-1 (antibody),OD405 L2 ELISA,[1],1.3 OD405
same,HPV16 neutralization (undiluted hybridoma supernatant titrated) (titer (1:x dilution)),[2],1280
same,OD405 L1/L2 ELISA,[3],0.9 OD405
same,"neutralization of HPV18 pseudovirions, RG-1 ascites (titer (1:x dilution))",[4],25600
same,"neutralization of HPV16 pseudovirions, RG-1 ascites (titer (1:x dilution))",[5],205000
same,ELISA titer (titer (1:x dilution)),[6],1.02e+06
